Measurements published in patent publication US20100242127.

Test system: 75 aa long oligopeptide with the correct sequence of amino acids 351-399 of the α2 subunit of the GABAA receptor

recombinant p42 MAP Kinase (Erk2) (New England Biolabs), sequence (P28482 2-360): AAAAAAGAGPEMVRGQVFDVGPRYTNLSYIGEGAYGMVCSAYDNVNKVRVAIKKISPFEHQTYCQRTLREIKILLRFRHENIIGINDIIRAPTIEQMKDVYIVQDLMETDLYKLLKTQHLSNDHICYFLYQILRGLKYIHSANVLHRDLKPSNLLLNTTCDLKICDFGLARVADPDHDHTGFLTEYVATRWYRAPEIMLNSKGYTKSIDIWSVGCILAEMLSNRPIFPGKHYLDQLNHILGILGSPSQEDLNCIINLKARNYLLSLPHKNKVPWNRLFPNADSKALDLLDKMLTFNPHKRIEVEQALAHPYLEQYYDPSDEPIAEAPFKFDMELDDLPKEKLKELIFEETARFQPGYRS

recombinant p42 MAP Kinase (Erk2) (New England Biolabs)
average share of total phosphorylation at each of the other nine Ser/Thr residues (in vitro kinase assay, ^32P incorporation): the other nine Ser/Thr residues are phosphorylated at an average of 4% each
incorporation of ^32P as a readout of phosphorylation (in vitro kinase assay): the construct with the wildtype sequence shows a much higher incorporation of ^32P than the second construct with the mutated T393
share of total phosphorylation at T393 (in vitro kinase assay, ^32P incorporation): 63% of total phosphorylation occurs at the putative Erk2 site
